Data: the supplement of paper PMC9112550, “Optimization of the antimicrobial peptide Bac7 by deep mutational scanning” (BMC Biology, 2022)

Test system: Escherichia coli TOP10
Assay: shrunken log2 fold change of peptide-encoding DNA abundance (4.5 h post-induction vs induction); higher = less antimicrobial activity (less host growth inhibition)
Details: time post-induction: 4.5 h; library: site-saturation at positions 5, 18, 19, 20
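Further: peptides expressed intracellularly from a pBAD plasmid library in pooled LB shake-flask culture, induced with 0.3% L-arabinose, DNA abundance read by NGS, three biological replicates, DESeq2 with apeglm shrinkage.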

| Sequence | shrunken log2 fold change |
| --- | --- |
| RRIRCRPPRLPRPRPRPYCSPRP | -0.502 |
| RRIRMRPPRLPRPRPRPYHRPRP | -0.141 |
| RRIRHRPPRLPRPRPRPPATPRP | 0.29 |
| RRIRSRPPRLPRPRPRPGDPPRP | 0.353 |
| RRIRARPPRLPRPRPRPYYDPRP | -0.215 |
| RRIRWRPPRLPRPRPRPEVMPRP | 0.00589 |
| RRIRCRPPRLPRPRPRPSKFPRP | -0.17 |
| RRIRCRPPRLPRPRPRPGIAPRP | 0.201 |
| RRIRMRPPRLPRPRPRPLIGPRP | -0.0325 |
| RRIRLRPPRLPRPRPRPEAEPRP | 0.96 |
| RRIRDRPPRLPRPRPRPHIRPRP | 0.00704 |
| RRIRYRPPRLPRPRPRPFIRPRP | -0.942 |
| RRIRPRPPRLPRPRPRPRQLPRP | 0.247 |
| RRIRDRPPRLPRPRPRPLRQPRP | 0.565 |
| RRIRKRPPRLPRPRPRPWTMPRP | 0.00233 |
| RRIRFRPPRLPRPRPRPSNVPRP | -0.989 |
| RRIRDRPPRLPRPRPRPTLRPRP | 0.129 |
| RRIRNRPPRLPRPRPRPIECPRP | 0.0138 |
| RRIRVRPPRLPRPRPRPNCVPRP | -0.0661 |
| RRIRPRPPRLPRPRPRPMHMPRP | 0.0173 |
| RRIRTRPPRLPRPRPRPYHWPRP | -0.675 |
| RRIRWRPPRLPRPRPRPKVMPRP | -0.207 |
| RRIRDRPPRLPRPRPRPRPDPRP | 0.379 |
| RRIRYRPPRLPRPRPRPLAYPRP | -0.15 |
| RRIRVRPPRLPRPRPRPKDMPRP | -0.272 |

| Sequence | shrunken log2 fold change |
| --- | --- |
| RRIRRRPPRLPRPRPRPDPTPRP | 0.77 |
| RRIRTRPPRLPRPRPRPAGVPRP | 0.107 |
| RRIRWRPPRLPRPRPRPVECPRP | 0.194 |
| RRIRERPPRLPRPRPRPKTMPRP | -0.293 |
| RRIRMRPPRLPRPRPRPRWDPRP | 0.793 |
| RRIRIRPPRLPRPRPRPHLNPRP | -0.852 |
| RRIRWRPPRLPRPRPRPWYFPRP | 0.275 |
| RRIRGRPPRLPRPRPRPREDPRP | 1.47 |
| RRIRMRPPRLPRPRPRPLVMPRP | 0.0504 |
| RRIRHRPPRLPRPRPRPRCSPRP | -0.236 |
| RRIRSRPPRLPRPRPRPIHWPRP | 0.151 |
| RRIRIRPPRLPRPRPRPQSTPRP | -0.427 |
| RRIRHRPPRLPRPRPRPMDIPRP | -0.00136 |
| RRIRQRPPRLPRPRPRPDYRPRP | -0.00448 |
| RRIRLRPPRLPRPRPRPKHRPRP | -0.112 |
| RRIRLRPPRLPRPRPRPVAHPRP | -0.454 |
| RRIRMRPPRLPRPRPRPGVQPRP | 0.16 |
| RRIRERPPRLPRPRPRPKEPPRP | 0.131 |
| RRIRPRPPRLPRPRPRPYEYPRP | -0.314 |
| RRIRKRPPRLPRPRPRPKFKPRP | 0.241 |
| RRIRCRPPRLPRPRPRPYYRPRP | -0.301 |
| RRIRRRPPRLPRPRPRPLRQPRP | 1.04 |
| RRIRPRPPRLPRPRPRPEGPPRP | -0.147 |
| RRIRFRPPRLPRPRPRPKMKPRP | 0.0379 |
| RRIRARPPRLPRPRPRPLFGPRP | 0.235 |

| Sequence | shrunken log2 fold change |
| --- | --- |
| RRIRERPPRLPRPRPRPKADPRP | -0.0439 |
| RRIRMRPPRLPRPRPRPMIPPRP | -0.448 |
| RRIRSRPPRLPRPRPRPWPHPRP | -0.0676 |
| RRIRLRPPRLPRPRPRPDGDPRP | 0.234 |
| RRIRQRPPRLPRPRPRPAWLPRP | -0.123 |
| RRIRHRPPRLPRPRPRPIECPRP | 0.0039 |
| RRIRQRPPRLPRPRPRPVSMPRP | -0.181 |
| RRIRQRPPRLPRPRPRPTLMPRP | 0.369 |
| RRIRQRPPRLPRPRPRPLHRPRP | -0.11 |
| RRIRPRPPRLPRPRPRPWTSPRP | -0.0224 |
| RRIRRRPPRLPRPRPRPTVHPRP | 0.231 |
| RRIRPRPPRLPRPRPRPNRCPRP | 0.0358 |
| RRIRYRPPRLPRPRPRPGPGPRP | 0.304 |
| RRIRSRPPRLPRPRPRPTRFPRP | 0.2 |
| RRIRVRPPRLPRPRPRPHFEPRP | 0.193 |
| RRIRFRPPRLPRPRPRPGKAPRP | 0.0429 |
| RRIRCRPPRLPRPRPRPYERPRP | -0.133 |
| RRIRIRPPRLPRPRPRPVNEPRP | -0.213 |
| RRIRSRPPRLPRPRPRPQGFPRP | -0.0809 |
| RRIRNRPPRLPRPRPRPMHWPRP | 0.0477 |
| RRIRMRPPRLPRPRPRPAWQPRP | 0.197 |
| RRIRDRPPRLPRPRPRPKRIPRP | 0.133 |
| RRIRFRPPRLPRPRPRPCMEPRP | -0.105 |
| RRIRWRPPRLPRPRPRPCWIPRP | -0.072 |
| RRIRYRPPRLPRPRPRPKCIPRP | -0.154 |

| Sequence | shrunken log2 fold change |
| --- | --- |
| RRIRWRPPRLPRPRPRPHHMPRP | -0.592 |
| RRIRARPPRLPRPRPRPQNDPRP | 5.63e-05 |
| RRIRARPPRLPRPRPRPWNQPRP | -0.247 |
| RRIRVRPPRLPRPRPRPCSSPRP | -0.201 |
| RRIRYRPPRLPRPRPRPTVQPRP | 0.028 |
| RRIRHRPPRLPRPRPRPLMPPRP | -0.107 |
| RRIRSRPPRLPRPRPRPLAHPRP | -0.0709 |
| RRIRDRPPRLPRPRPRPLAVPRP | 0.887 |
| RRIRVRPPRLPRPRPRPWRKPRP | 0.0283 |
| RRIRARPPRLPRPRPRPWNSPRP | -0.222 |
| RRIRFRPPRLPRPRPRPDCYPRP | -0.329 |
| RRIRTRPPRLPRPRPRPGTSPRP | -0.043 |
| RRIRYRPPRLPRPRPRPPWSPRP | -0.372 |
| RRIRVRPPRLPRPRPRPNKDPRP | -0.448 |
| RRIRQRPPRLPRPRPRPPYDPRP | -0.152 |
| RRIRGRPPRLPRPRPRPYCGPRP | -0.349 |
| RRIRSRPPRLPRPRPRPVKNPRP | 0.291 |
| RRIRYRPPRLPRPRPRPLQWPRP | -0.0328 |
| RRIRDRPPRLPRPRPRPVSYPRP | -0.0715 |
| RRIRKRPPRLPRPRPRPLMKPRP | 0.0125 |
| RRIRVRPPRLPRPRPRPATYPRP | -0.0417 |
| RRIRGRPPRLPRPRPRPHIYPRP | 0.0231 |
| RRIRDRPPRLPRPRPRPDFRPRP | -0.0735 |
| RRIRKRPPRLPRPRPRPNPRPRP | 0.228 |
| RRIRYRPPRLPRPRPRPLFQPRP | -0.76 |

| Sequence | shrunken log2 fold change |
| --- | --- |
| RRIRIRPPRLPRPRPRPGHKPRP | -0.363 |
| RRIRHRPPRLPRPRPRPIVYPRP | -0.452 |
| RRIRKRPPRLPRPRPRPYIEPRP | -0.127 |
| RRIRCRPPRLPRPRPRPNEAPRP | 0.00978 |
| RRIRTRPPRLPRPRPRPSASPRP | -0.0732 |
| RRIRFRPPRLPRPRPRPVLFPRP | -0.172 |
| RRIRFRPPRLPRPRPRPKARPRP | 0.297 |
| RRIRSRPPRLPRPRPRPVVSPRP | 0.151 |
| RRIRARPPRLPRPRPRPNFKPRP | 0.0298 |
| RRIRVRPPRLPRPRPRPMVEPRP | 0.303 |
| RRIRDRPPRLPRPRPRPYQTPRP | -0.0929 |
| RRIRGRPPRLPRPRPRPCSVPRP | 0.394 |
| RRIRTRPPRLPRPRPRPPERPRP | 0.351 |
| RRIRVRPPRLPRPRPRPTYAPRP | 0.141 |
| RRIRKRPPRLPRPRPRPNERPRP | -0.0286 |
| RRIRERPPRLPRPRPRPPHVPRP | -0.362 |
| RRIRLRPPRLPRPRPRPHDAPRP | -0.0938 |
| RRIRKRPPRLPRPRPRPDWGPRP | 2.83 |
| RRIRCRPPRLPRPRPRPVFGPRP | -0.0365 |
| RRIRDRPPRLPRPRPRPCSPPRP | 0.0779 |
| RRIRMRPPRLPRPRPRPFTNPRP | 3.34 |
| RRIRERPPRLPRPRPRPVPEPRP | -0.0948 |
| RRIRTRPPRLPRPRPRPHHVPRP | 0.0387 |
| RRIRKRPPRLPRPRPRPVKSPRP | 0.155 |
| RRIRQRPPRLPRPRPRPIKEPRP | -0.023 |
